Experimental data published in the supplement of paper PMC9170038.

System: MS2 coat protein
Experiment: apparent KD of MS2 coat protein; designed switch direction (-1 OFF switch, 1 ON switch): -1; higher = weaker reporter binding
Summary of the method: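 On Illumina chips, designed RNA switches with common flanks were made by stalled E. coli RNA polymerase. Titrations with SNAP-549-labelled MS2 coat protein, doubling from 0.7 or 1.5 nM to 3 µM, were done with no input, with 200 uM small-molecule ligand, or with an oligonucleotide input. Apparent KD is the median per design over clusters, from curve fits of normalised cluster fluorescence.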

[1] = Eterna round: R95, input ligand: FMN 200 uM
[2] = Eterna round: R95, input ligand: microRNA oligo, concentration not stated
[3] = Eterna round: R95, input ligand: none
[4] = input ligand: microRNA oligo, concentration not stated

Sequence	apparent KD of MS2 coat protein (input ligand: FMN 200 uM) [nM]	apparent KD of MS2 coat protein (input ligand: none) [nM]	apparent KD of MS2 coat protein [1] [nM]	apparent KD of MS2 coat protein [2] [nM]	apparent KD of MS2 coat protein [3] [nM]	apparent KD of MS2 coat protein [4] [nM]
GUAGAGUCAGGAUAUACGCGAUCGAAAGAUCGGUGGUCCUUACAUGAGGAUCACCCAUGUAGAAGGGACUCUAC [Omei mod 13 to Eli's favorate candidate (ch.parushev)] (Eterna round: R97, puzzle: Exclusion 2)	65.9	580	–	–	–	–
AGAAAGCAAGGAUAUACAAAGAAACGACCGAAAGAAAAGAAACAUGAGGAUCACCCAUGUAGAAGGUGCAAGAA [JR_Exclu2_Sub031] (puzzle: Exclusion 2)	–	–	19	12.8	17.7	–
GAAUGAGAGCAGGAUAUCUUAUAAAUGUAUGAAAGAGAAGGGCUCACAUGAGGAUCACCCAUGUGGUCCUAGAC [jl-ex6-4.72 jandersonlee mod] (Eterna round: R97, puzzle: Exclusion 6)	309	40.1	–	–	–	–
UACUUCUGAGGAUAUACAUAGAUUUACAUGAGGAUCACCCAUGUUCCUCUAUGUAUAAAUGUAGAAGGCAGAAGAU [Mat - Exclusion 5 - JL Mod - D61] (Eterna round: R97, puzzle: Exclusion 5)	87.8	16.7	–	–	–	–
CGUUCGCGAGGAUAUGCAUUCGAGUCCACUACGUGUCUGGGACUUGAGGAUCACCCAAGUAGAAGGCGCCUCCC [salish99_ex2_r4_649] (Eterna round: R97, puzzle: Exclusion 2)	71.3	47.9	–	–	–	–
ACAUCCUUAGUAAGGAUAUCGUCCGCCGAGGCGGGCGAGAAGGUACAUGAGGAUCACCCAUGUAUGCAGCAGAU [Eternabot (L2) Solution 59] (Eterna round: R97, puzzle: Brourd's mod of Exclusion 4)	19.1	14	–	–	–	–
ACAGAGCAAGGAUAUGCCGGGCGUGACAUGAGGAUCACCCAUGUGAUGCCGGUACGUUUAGCAGAAGGUGCAGGCA [EX5 C.2] (Eterna round: R97, puzzle: Exclusion 5)	19	14.8	–	–	–	–
GUCAGCUCGUGAGGAUAUACAUGAGGAUCACCCAUGUGGUCAUUAGCAGCUUCGGCUGCAUUAAUGUAGAAGGCACGAGCUGAC [ENG2/8-A1] (Eterna round: R96, puzzle: Exclusion NG 2)	635	1140	–	–	–	690
UUUUUGUGAGGAUAUCAGUAGUAGAACAAUAGUACUACUACUGAGAAGGUACAUGAGGAUCACCCAUGUUCCUC [Fiskers Ex 4 Super stable 44 mod 13] (puzzle: Exclusion 4)	–	–	–	19.5	–	–
AGAUAGUGGUGAGGAUAUGAGAAUAGAAAGAAAUCAGAAGGCACACAUGAGGAUCACCCAUGUGAGUUCUUGAGAUUACAUGGU [Prohibition 42 - Jieux - Exclusion NG 1] (Eterna round: R96, puzzle: Exclusion NG 1)	22.6	15.4	–	–	–	11.3
AAUAGUCAAGUUAGGAUAUUGCACCAGUGAUGGACCAAGAAGGAACAUGAGGAUCACCCAUGUGAACUCACGAC [Eternabot (Original) Solution 3] (Eterna round: R97, puzzle: Brourd's mod of Exclusion 4)	344	40.8	–	–	–	–
UGAUCACAUGAGGAUCACCCAUGUCAGGAUAUCUACAUUGAAGCCUCGGCUUCAAUGUAGAGAAGGGAUAUAAU [E1/5-B2] (Eterna round: R97, puzzle: Exclusion 1)	189	86.8	–	–	–	–
AUGGAGGCAGGAUAUGAGCGUACGAACAUGAGGAUCACCCAUGUGAGAUCUCCUGGUAGCUCAGAAGGGCUAUCUC [Eternabot (Original) Solution 5] (Eterna round: R97, puzzle: Exclusion 5)	253	67.4	–	–	–	–
GUUGCGUUUGUGAGGAUAUGCUGGUCCUUGGUUCGGCAGAAGGCACAUGAGGAUCACCCAUGUGGUGUUGUUCC [salish99_Bmod_ex4_052] (puzzle: Brourd's mod of Exclusion 4)	–	–	–	90.5	–	–
GAAUGAGAGCAGGAUAUCUUAAAAAUGUAUCAAAGAGAAGGGCUCACAUGAGGAUCACCCAUGUGGUCCUAGAU [jl-ex6-4.67 jandersonlee mod] (Eterna round: R97, puzzle: Exclusion 6)	152	22.5	–	–	–	–
GUUCUUCCUGUAAGGAUAUCCAUGUGUCGGUUUAUGGAGAAGGUACAUGAGGAUCACCCAUGUCACCCGCGUUA (Eterna round: R97, puzzle: Brourd's mod of Exclusion 4)	45.9	18.5	–	–	–	–
UCCGUGUCAGGAUAUAACUGGUCGAGCGCAGAAGCGUCCUGUUAGAAGGGACAUGAGGAUCACCCAUGUUUAAC [Eternabot (L1) Solution 74] (Eterna round: R97, puzzle: Exclusion 4)	213	38.5	–	–	–	–

Sequence	apparent KD of MS2 coat protein (input ligand: FMN 200 uM) [nM]	apparent KD of MS2 coat protein (input ligand: none) [nM]	apparent KD of MS2 coat protein [1] [nM]	apparent KD of MS2 coat protein [2] [nM]	apparent KD of MS2 coat protein [3] [nM]	apparent KD of MS2 coat protein [4] [nM]
UUAAUACAUGAGGAUCACCCAUGUCAGGAUAUUACGAUUACUCCGUGCCCAUUGAGAGUGAGAAGGGAUAUGGA [Eternabot (L2) Solution 58] (Eterna round: R97, puzzle: Exclusion 1)	19.7	18.1	–	–	–	–
AGUGUCAAGCAAGCAAGGAACAUGAGGAUCACCCAUGUCGUACAAUAAACGCCCGCUCGUCGCACGUCGUGCGUAGA [Eternabot (Original) Solution 18] (Eterna round: R97, puzzle: Sensor, turn-off variant 1)	34.3	27.2	–	–	–	–
GAUCAUGCAGGAUAUACAGUAACCAUGAAAACAUGGAUCAAACAUGAGGAUCACCCAUGUAGAAGGGCAUGAUC [Omei Ex2 A22] (Eterna round: R97, puzzle: Exclusion 2)	38.8	18.2	–	–	–	–
UUCCUACAUGAGGAUCACCCAUGUCAGGAUAUCUCCUCACCGCGAAAAGGCGGUGAAAAGAGAAGGGACAGGAA [Usbian] (puzzle: Exclusion 1)	–	–	16	10.7	13.8	–
AAAACAAAAGGAUAUACAUGAGGAUCACCCAUGUGGCGAUAAAUCGCCGCUAAACCAUGUAGAAGGUUUGCGAA [EX3 A.2] (Eterna round: R97, puzzle: Exclusion 3)	102	42.6	–	–	–	–
GUCGUGCGGCAGUGCUGUACGAGUACAUGAGGAUCACCCAUGUAGGAUAUGGUUCGUUUUGCGUGCUAGAAGGGCGUGCGUUUU [Excl-NG3-LRO18] (Eterna round: R96, puzzle: Exclusion NG 3)	18	24.8	–	–	–	15.8
GCAACGCUGAAAGGAUAUGUUGACCGAGAGACAACAGAAGGUUCCGCACAUGAGGAUCACCCAUGUGAUCGUAAAAGAGCAAGC [Eternabot solution 18] (Eterna round: R96, puzzle: Exclusion NG 1)	99.5	48.1	–	–	–	35.9
UUUUGGCAAGCGAGAUCCUACAUGAGGAUCACCCAUGUUGACCAUGGUUUCCAUGGUCUUUUUGCUCGUCUUGUGUG [jl TITIN mod 3] (Eterna round: R97, puzzle: Sensor, turn-off variant 1)	21.1	23.1	–	–	–	–
AAAAAACAUGAGGAUCACCCAUGUCAGGAUAUCCGAAAAGAAAAGAAAAAGAAAAAAGGGAGAAGGGACAAAAA [April's ex-date #2] (puzzle: Exclusion 1)	–	–	50.5	42	33	–
UUUACAAGCUAUUGAUCCCACAUGAGGAUCACCCAUGUUCCUGGCCGUGAGGCUAGGUAAACAAUUGCUCGUCUUAU [JL TOV1 3.69] (Eterna round: R97, puzzle: Sensor, turn-off variant 1)	903	1370	–	–	–	–
UUUUACAAGCUAAGAUCCUACAUGAGGAUCACCCAUGUGGUCCGGUGACGUGAGUCACCGGACUUAGCUCGUCUUGA [salish99_S_TOV1_R5_085] (Eterna round: R97, puzzle: Sensor, turn-off variant 1)	38.9	40.4	–	–	–	–
GCGCGCGCAGGAUAUACAUGAGGAUCACCCAUGUAGGGCCCGGGUAUUCCCGGGCCCUGUAGAAGGGUGUGUGU [-40.4, -37.1 kcal, A 19%, 0-6] (Eterna round: R97, puzzle: Exclusion 3)	21.8	113	–	–	–	–
CGUUCGCGAGGAUAUGCAUUCGAGUCCAUUACGUGUCUGGGACUUGAGGAUCACCCAAGUAGAAGGCGUCUCAC [salish99_ex2_r4_646] (Eterna round: R97, puzzle: Exclusion 2)	135	154	–	–	–	–
GCGCGUAGAUAGGAUAUUUGAUAAAGACGGACCAAAGAAGGAUUUACAUGAGGAUCACCCAUGUCGAUCCUCUU [EX6 C.17] (Eterna round: R97, puzzle: Exclusion 6)	14.2	16.4	–	–	–	–
GGUACUAACACGGAAGUGUUAGUACUAUAAGCUUGUGUUACAUGAGGAUCACCCAUGUCCUCAUAAGCUCGUCUUAU [Mat - Sensor v3 - Turn-off var 2 - D75] (puzzle: Sensor v3, turn-off variant 2)	–	–	93.5	38.1	90.7	–
GCCUCACUUGAGGAUCACCCAAGUCAGGAUAUUCACUGAACUGCGUAACAGUUCGGCCGAAGAAGGGAUUCGGG [Uscedian] (Eterna round: R97, puzzle: Exclusion 1)	35.6	96.5	–	–	–	–
